Values of other authors in US20210000129A1, “COMPOSITION FOR LOWERING BLOOD PRESSURE AND/OR REDUCING NEUTRAL FATS” (MORINAGA MILK INDUSTRY CO., LTD., priority 2018, published 2021).

Key:
dipeptidyl-peptidase IV = dipeptidyl-peptidase IV (Homo sapiens, UniProt P27487); settings: known from References 1 to 3
[1] = molecular target: angiotensin converting enzyme (Homo sapiens, UniProt P12821); settings: known from References 1 to 3
angiotensin converting enzyme, sequence (P12821 30-1306, species assumed): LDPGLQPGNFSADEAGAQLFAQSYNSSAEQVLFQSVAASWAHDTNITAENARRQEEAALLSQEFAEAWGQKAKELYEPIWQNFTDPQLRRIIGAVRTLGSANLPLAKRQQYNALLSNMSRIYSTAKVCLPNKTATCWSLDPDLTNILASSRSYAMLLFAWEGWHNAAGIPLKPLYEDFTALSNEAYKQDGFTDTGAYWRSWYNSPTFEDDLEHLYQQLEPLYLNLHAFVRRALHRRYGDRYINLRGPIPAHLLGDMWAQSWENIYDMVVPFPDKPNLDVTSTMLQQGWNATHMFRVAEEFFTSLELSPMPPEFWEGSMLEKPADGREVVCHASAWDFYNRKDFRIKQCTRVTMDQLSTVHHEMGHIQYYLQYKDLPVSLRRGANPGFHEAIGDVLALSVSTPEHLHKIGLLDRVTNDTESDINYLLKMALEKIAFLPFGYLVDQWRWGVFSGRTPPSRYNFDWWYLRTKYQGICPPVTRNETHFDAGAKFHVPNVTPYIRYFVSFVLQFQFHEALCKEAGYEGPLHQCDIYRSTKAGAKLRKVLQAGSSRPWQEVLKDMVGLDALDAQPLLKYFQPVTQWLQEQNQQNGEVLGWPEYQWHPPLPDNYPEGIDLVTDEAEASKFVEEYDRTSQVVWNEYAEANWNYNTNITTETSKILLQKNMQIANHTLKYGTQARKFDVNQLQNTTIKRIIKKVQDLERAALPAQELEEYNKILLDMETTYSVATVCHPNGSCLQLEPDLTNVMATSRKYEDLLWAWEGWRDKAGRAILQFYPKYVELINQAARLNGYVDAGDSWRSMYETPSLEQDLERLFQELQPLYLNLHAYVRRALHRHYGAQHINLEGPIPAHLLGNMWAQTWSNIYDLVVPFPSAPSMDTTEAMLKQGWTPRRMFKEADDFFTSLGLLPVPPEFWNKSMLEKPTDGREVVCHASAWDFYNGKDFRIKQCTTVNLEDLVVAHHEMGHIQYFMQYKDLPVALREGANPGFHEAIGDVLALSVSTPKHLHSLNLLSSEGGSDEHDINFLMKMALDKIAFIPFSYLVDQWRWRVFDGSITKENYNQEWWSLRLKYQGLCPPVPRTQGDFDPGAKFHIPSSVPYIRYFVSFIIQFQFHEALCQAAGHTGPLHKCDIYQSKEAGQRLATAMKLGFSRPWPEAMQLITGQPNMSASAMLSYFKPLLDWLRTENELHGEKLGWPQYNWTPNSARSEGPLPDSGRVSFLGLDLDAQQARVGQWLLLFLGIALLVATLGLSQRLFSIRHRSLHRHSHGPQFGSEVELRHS

dipeptidyl-peptidase IV, sequence (P27487 whole entry, species assumed): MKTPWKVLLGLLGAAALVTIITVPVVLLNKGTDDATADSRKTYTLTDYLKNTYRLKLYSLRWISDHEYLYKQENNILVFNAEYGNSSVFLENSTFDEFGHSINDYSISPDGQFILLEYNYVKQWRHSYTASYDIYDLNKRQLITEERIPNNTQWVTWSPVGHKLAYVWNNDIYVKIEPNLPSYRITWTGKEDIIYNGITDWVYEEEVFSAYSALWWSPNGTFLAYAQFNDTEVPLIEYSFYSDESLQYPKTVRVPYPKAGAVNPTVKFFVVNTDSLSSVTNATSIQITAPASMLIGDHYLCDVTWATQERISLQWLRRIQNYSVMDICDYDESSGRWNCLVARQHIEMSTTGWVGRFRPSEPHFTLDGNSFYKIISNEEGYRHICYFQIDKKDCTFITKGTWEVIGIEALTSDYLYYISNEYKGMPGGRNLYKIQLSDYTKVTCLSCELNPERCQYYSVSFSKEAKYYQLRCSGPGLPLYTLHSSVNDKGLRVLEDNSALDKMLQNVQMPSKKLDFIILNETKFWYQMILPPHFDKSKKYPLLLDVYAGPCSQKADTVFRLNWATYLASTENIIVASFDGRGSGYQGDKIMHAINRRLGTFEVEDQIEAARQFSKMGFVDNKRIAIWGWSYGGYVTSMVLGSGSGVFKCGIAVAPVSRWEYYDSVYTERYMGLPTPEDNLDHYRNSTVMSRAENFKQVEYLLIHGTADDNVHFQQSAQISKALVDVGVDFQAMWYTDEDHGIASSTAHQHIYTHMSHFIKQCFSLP

Met-Lys-Pro (MKP) [tripeptide MKP]
dipeptidyl-peptidase IV-inhibiting action (dipeptidyl-peptidase IV): dipeptidyl-peptidase IV-inhibiting action | angiotensin converting enzyme-inhibiting action [1]: angiotensin converting enzyme-inhibiting action
